Consider 33 molecules from US20180291110A1 (Hoffmann-La Roche, published 2018).

Numbering of substitutions follows the chain as printed.

This assay deals with T1, human transferrin receptor (recombinant, for surface plasmon resonance) (human, UniProt P02786 89-760).
T1 construct: also called huTfR; human transferrin receptor-biotinylated
The assay is described as follows: SPR 25C.

T1 sequence (P02786 89-760 limits assumed): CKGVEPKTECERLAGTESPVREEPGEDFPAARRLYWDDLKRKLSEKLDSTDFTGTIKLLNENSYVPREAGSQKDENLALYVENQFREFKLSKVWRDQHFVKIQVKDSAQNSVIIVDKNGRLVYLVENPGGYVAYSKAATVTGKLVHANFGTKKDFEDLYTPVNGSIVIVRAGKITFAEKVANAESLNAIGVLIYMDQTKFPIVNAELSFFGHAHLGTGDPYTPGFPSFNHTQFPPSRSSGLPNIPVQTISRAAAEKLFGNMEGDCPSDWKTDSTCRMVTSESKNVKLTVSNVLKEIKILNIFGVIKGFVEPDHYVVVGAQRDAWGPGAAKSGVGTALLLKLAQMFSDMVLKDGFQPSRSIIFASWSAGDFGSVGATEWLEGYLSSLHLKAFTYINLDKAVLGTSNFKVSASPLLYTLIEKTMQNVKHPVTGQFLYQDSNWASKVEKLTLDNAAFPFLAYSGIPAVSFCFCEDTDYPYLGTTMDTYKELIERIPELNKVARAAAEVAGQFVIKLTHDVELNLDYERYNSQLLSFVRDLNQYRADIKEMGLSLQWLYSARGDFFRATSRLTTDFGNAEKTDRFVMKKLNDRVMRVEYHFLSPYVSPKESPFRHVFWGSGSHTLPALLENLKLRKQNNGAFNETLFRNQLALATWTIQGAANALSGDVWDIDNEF

B1: 2/99 VH1/VL1 (antibody, V domains shown)
VH: VQLVETGGGLIQPGGSLRLSCAASGFSLSSYAMSWVRQAPGKGLEWVGYIWSGGSTDYADSVKGRFTISRDNSKNTLYLQMNSLRAEDTAVYYCARRYGTSYPDYGDANGFDPWGQGTLVTVSS
VL: DIQMTQSPSSLSASVGDRVTITCRASQSISSYLNWYQQKPGKAPKLLIYRASSLQSGVPSRFSGSGSGTDFTLTISSLQPEDFATYYCQQSYSSSNVDNTFGGGTKVEIK
With B1, the dissociation rate constant (koff) is 0.001 s⁻¹.

B2: 2/99 VH22/VL1 (antibody, V domains shown)
VH: QSMQESGPGLVKPSQTLSLTCTVSGFSLSSYAMSWVRQHPGKGLEWIGYIWSGGSTDYASWAKSRVTISVDTSKNQVSLKLSSVTAADTAVYYCARRYGTSYPDYGDANGFDPWGQGTLVTVSS
VL: B1 VL
As to B2, the off-rate (koff) was 0.00578 s⁻¹.

B3: 2/99 VH20/VL1 (antibody, V domains shown)
VH: B2 VH with V36I, S60P, W61S, A62L
VL: B1 VL
With B3, the dissociation rate constant (koff) was 0.001 s⁻¹.

B4: 2/99 VH19/VL1 (antibody, V domains shown)
VH: B2 VH with V36I, S60P, W61S, A62L, V77F
VL: B1 VL
For the molecule B4, the off-rate constant (koff) turned out to be 0.001 s⁻¹.

B5: 2/99 VH7/VL1 (antibody, V domains shown)
VH: B1 VH with V1Q, V47I, D60S, S61W, V62A
VL: B1 VL
Regarding B5, the off-rate (koff) was found to be 0.00752 s⁻¹.

B6: 2/99 VH15/VL1 (antibody, V domains shown)
VH: B2 VH with S2Q, M3L, Q15E, H39P, A59N, S60P, W61S, A62L
VL: B1 VL
For the molecule B6, the koff amounted to 0.00772 s⁻¹.

B7: 2/99 VH12/VL2 (antibody, V domains shown)
VH: QVQLQESGPGLVKPSETLSLTCTVSGFSLSSYAMSWIRQPPGKGLEWIGYIWSGGSTDYNPSLKSRVTISVDTSKNQFSLKLSSVTAADTAVYYCARRYGTSYPDYGDANGFDPWGQGTLVTVSS
VL: B1 VL with S53T, Q55A
B7: the koff amounted to 0.00635 s⁻¹.

B8: 2/99 VH2/VL2 (antibody, V domains shown)
VH: EVQLVETGGGLIQPGGSLRLSCAASGFSLSSYAMSWVRQAPGKGLEWVGYIWSGGSTDYADSVKGRFTISRDNSKNTLYLQMNSLRAEDTAVYYCARRYGTSYPDYGDANGFDPWGQGTLVTVSS
VL: B1 VL with S53T, Q55A
On to B8, for which the koff was determined as 0.00275 s⁻¹.

B9: 2/99 VH6/VL2 (antibody, V domains shown)
VH: B1 VH with V1Q, V47I
VL: B1 VL with S53T, Q55A
Take B9: the off-rate constant (koff) turned out to be 0.00187 s⁻¹.

B10: 2/99 VH8/VL1 (antibody, V domains shown)
VH: QQLVETGGGLIQPGGSLRLSCAASGFSLSSYAMSWVRQAPGKGLEWIGYIWSGGSTDYASWAKGRFTISKTSTTLYLQMNSLRAEDTAVYYCARRYGTSYPDYGDANGFDPWGQGTLVTVSS
VL: B1 VL
B10: the dissociation rate constant (koff) worked out at 0.00319 s⁻¹.

B11: 2/99 VH13/VL2 (antibody, V domains shown)
VH: B7 VH with F78V
VL: B1 VL with S53T, Q55A
On to B11, for which the off-rate constant (koff) was 0.00246 s⁻¹.

B12: 2/99 VH8/VL2 (antibody, V domains shown)
VH: B10 VH
VL: B1 VL with S53T, Q55A
On to B12, for which the koff is 0.00101 s⁻¹.

B13: 2/99 VH16/VL2 (antibody, V domains shown)
VH: B2 VH with S2Q, M3L, Q15E, H39P, A59N, S60P, W61S, A62L, Q116P
VL: B1 VL with S53T, Q55A
B13: the dissociation rate constant (koff) worked out at 0.00197 s⁻¹.

B14: 2/99 VH2/VL1 (antibody, V domains shown)
VH: B8 VH
VL: B1 VL
For the molecule B14, the koff stood at 0.001 s⁻¹.

B15: 2/99 VH18/VL2 (antibody, V domains shown)
VH: B7 VH with E16Q, P40H, N60A
VL: B1 VL with S53T, Q55A
As to B15, the off-rate (koff) was 0.00489 s⁻¹.

B16: 2/99 VH11/VL2 (antibody, V domains shown)
VH: B1 VH with V1Q, V4L, T6S, I11V
VL: B1 VL with S53T, Q55A
Regarding B16, the koff was 0.00385 s⁻¹.

B17: 2/99 VH7/VL2 (antibody, V domains shown)
VH: B1 VH with V1Q, V47I, D60S, S61W, V62A
VL: B1 VL with S53T, Q55A
For B17, the off-rate constant (koff) is 0.00131 s⁻¹.

B18: 2/99 VH18/VL1 (antibody, V domains shown)
VH: B7 VH with E16Q, P40H, N60A
VL: B1 VL
B18: the off-rate constant (koff) turned out to be 0.001 s⁻¹.

B19: 2/99 VH11/VL1 (antibody, V domains shown)
VH: B1 VH with V1Q, V4L, T6S, I11V
VL: B1 VL
In the case of B19, the koff was found to be 0.001 s⁻¹.

B20: 2/99 VH13/VL1 (antibody, V domains shown)
VH: B7 VH with F78V
VL: B1 VL
Take B20: the koff is 0.001 s⁻¹.

B21: 2/99 VH17/VL2 (antibody, V domains shown)
VH: B2 VH with S2Q, M3L, Q15E, H39P, A59N, S60P, W61S, A62L, V70K, Q116P
VL: B1 VL with S53T, Q55A
In the case of B21, the koff is 0.00105 s⁻¹.

B22: 2/99 VH23-DANG/VL1 (antibody, V domains shown)
VH: QSMQESGPGLVKPSQTLSLTCTVSGFSLSSYAMSWIRQHPGKGLEWIGYIWSGGSTDYASWAKSRVTISKTSTTVSLKLSSVTAADTAVYYCARRYGTSYPDYGDANGFDPWGQGTLVTVSS
VL: B1 VL
With B22, the off-rate (koff) amounted to 0.0028 s⁻¹.

B23: 2/99 VH12/VL1 (antibody, V domains shown)
VH: B7 VH
VL: B1 VL
Consider B23, for which the off-rate constant (koff) is 0.001 s⁻¹.

B24: 2/99 VH9/VL1 (antibody, V domains shown)
VH: B1 VH with V1Q, V4L, T6S, I11V, S27T, L28F, R96K
VL: B1 VL
For B24, the dissociation rate constant (koff) was found to be 0.00694 s⁻¹.

B25: 2/99 VH6/VL1 (antibody, V domains shown)
VH: B1 VH with V1Q, V47I
VL: B1 VL
Take B25: the koff is 0.001 s⁻¹.

B26: 2/99 VH16/VL1 (antibody, V domains shown)
VH: B2 VH with S2Q, M3L, Q15E, H39P, A59N, S60P, W61S, A62L, Q116P
VL: B1 VL
With B26, the koff is 0.00771 s⁻¹.

B27: 2/99 VH21/VL1 (antibody, V domains shown)
VH: B2 VH with V36I
VL: B1 VL
As for B27, the koff was 0.00771 s⁻¹.

B28: 2/99 VH1/VL2 (antibody, V domains shown)
VH: B1 VH
VL: B1 VL with S53T, Q55A
On to B28, for which the off-rate (koff) was determined as 0.00286 s⁻¹.

B29: 2/99 VH5/VL1 (antibody, V domains shown)
VH: B1 VH with V1Q, Q2S, L3M, V4E, Q116P
VL: B1 VL
B29: the dissociation rate constant (koff) is 0.001 s⁻¹.

B30: 2/99 VH17/VL1 (antibody, V domains shown)
VH: B2 VH with S2Q, M3L, Q15E, H39P, A59N, S60P, W61S, A62L, V70K, Q116P
VL: B1 VL
With B30, the koff was 0.00433 s⁻¹.

B31: 2/99 VH5/VL2 (antibody, V domains shown)
VH: B1 VH with V1Q, Q2S, L3M, V4E, Q116P
VL: B1 VL with S53T, Q55A
As for B31, the koff was 0.00241 s⁻¹.

B32: 2/99 VH15/VL2 (antibody, V domains shown)
VH: B2 VH with S2Q, M3L, Q15E, H39P, A59N, S60P, W61S, A62L
VL: B1 VL with S53T, Q55A
For B32, the koff was 0.00216 s⁻¹.

B33: 2/99 VH0(rb)/VL0(rb) (antibody, V domains shown)
VH: QSMEESGGRLVTPGTPLTLTCTVSGFSLSSYAMSWVRQAPGKGLEWIGYIWSGGSTDYASWAKGRFTISKTSTTVDLKITSPTTEDTATYFCARRYGTSYPDYGDANGFDPWGPGTLVTVSS
VL: AYDMTQTPASVEVAVGGTVTIKCQASQSISSYLSWYQQKPGQRPKLLIYRASTLASGVSSRFKGSGSGTQFTLTISGVECADAATYYCQQCYSSSNVDNTFGGGTEVVVKR
notes: 0 (rb) read as the rabbit parental domains of clone 2/99
In the case of B33, the off-rate (koff) was determined as 0.000434 s⁻¹.
